From publication PMC2995041 come the findings set out here.

In general, Kd refers to a measure of binding affinity in units of concentration. Lower therefore signals tighter binding.

Holding throughout (experiment): EMSA
On the technique in general: Mobility shift assays separate free from complexed probe on a gel.

The target of data set [1] is T1, BLM HRDC domain WT (Homo sapiens, UniProt P54132 1210-1294).
In data set [2] the target is BLM HRDC Y1237A (Homo sapiens, UniProt P54132 1210-1294, Y1237A).
The target in data set [3] is BLM HRDC T1243A (Homo sapiens, UniProt P54132 1210-1294, T1243A).
Data set [4] addresses T1, BLM HRDC domain WT. This is another data set of the same source.

T1 sequence (P54132 1210-1294): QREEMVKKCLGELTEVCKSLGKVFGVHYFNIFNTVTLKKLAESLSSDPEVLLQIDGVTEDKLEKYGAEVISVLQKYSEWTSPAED
Chain of BLM HRDC T1243A (P54132 1210-1294 T1243A): as the sequence (P54132 1210-1294) above, with T34A counted along it
Chain of BLM HRDC Y1237A (P54132 1210-1294 Y1237A): as the sequence (P54132 1210-1294) above, with Y28A counted along it

Take GCGCATATGGAGCGTTTCCAAAGTCTTAG (ssDNA) [1SD* ssDNA 29 nt]: the Kd in data set [1] was roughly 100 µM. The binding result in data set [2] and in data set [3] was “binds” in each case.

B1: 1SD*/2DD dsDNA 29 bp (dsDNA)
DNA 1: GCGCATATGGAGCGTTTCCAAAGTCTTAG
DNA 2: CTAAGACTTTGGAAACGCTCCATATGCGC
With B1, the binding result in data set [4] is recorded as “no binding”.
